Experimental data: patent US20250388640A1 (SYNTHEKINE, published 2025)
Where a chain is given by its changes, count along the chain named. Numbers in names are those of the source. One block for each binder: values may come before it.

Legend:
Assay in all cases: cell-based or functional assay
[1] = target: T1, hIL-12 receptor signaling complex (hIL-12Rβ1 and hIL-12Rβ2) (human, UniProt P42701 24-662; Q99665 24-862)
[2] = target: T1, hIL-12 receptor signaling complex …; remark: listed apart in the source
[3] = target: T1, hIL-12 receptor signaling complex …; remark: listed apart in the source
[4] = target: T1, hIL-12 receptor signaling complex …; remark: listed apart in the source

T1 sequence (Q99665 24-862, chain 2 of 2, other chains not shown): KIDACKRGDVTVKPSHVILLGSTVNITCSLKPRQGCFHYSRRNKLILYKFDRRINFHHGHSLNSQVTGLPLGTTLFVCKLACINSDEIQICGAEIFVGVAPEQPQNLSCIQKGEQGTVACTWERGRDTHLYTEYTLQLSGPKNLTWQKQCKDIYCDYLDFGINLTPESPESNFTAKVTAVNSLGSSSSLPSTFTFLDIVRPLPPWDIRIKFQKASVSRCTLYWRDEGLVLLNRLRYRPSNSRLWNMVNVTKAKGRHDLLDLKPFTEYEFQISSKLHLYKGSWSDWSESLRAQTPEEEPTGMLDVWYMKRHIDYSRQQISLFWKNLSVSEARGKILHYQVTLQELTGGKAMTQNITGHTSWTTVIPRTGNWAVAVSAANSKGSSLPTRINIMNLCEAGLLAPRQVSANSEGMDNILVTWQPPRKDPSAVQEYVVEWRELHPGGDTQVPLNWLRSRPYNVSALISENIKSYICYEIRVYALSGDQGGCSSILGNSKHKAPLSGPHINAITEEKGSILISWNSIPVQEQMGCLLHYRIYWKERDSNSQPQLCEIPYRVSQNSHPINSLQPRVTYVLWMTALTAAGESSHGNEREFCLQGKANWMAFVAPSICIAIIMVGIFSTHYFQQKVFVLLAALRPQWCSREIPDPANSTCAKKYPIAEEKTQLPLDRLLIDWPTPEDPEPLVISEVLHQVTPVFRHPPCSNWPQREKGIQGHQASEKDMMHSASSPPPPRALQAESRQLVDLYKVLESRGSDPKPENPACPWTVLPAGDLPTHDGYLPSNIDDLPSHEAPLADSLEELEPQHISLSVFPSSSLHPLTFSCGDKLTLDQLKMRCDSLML

pSTAT4 [gMFI] EC50, CD8+ T Cells [1]: 6.6 nM
pSTAT4 [gMFI] EC50, CD56hi NK Cells [1]: 5.94 nM
pSTAT4 [gMFI] Emax, CD8+ T Cells [1]: 100000 gMFI
pSTAT4 [gMFI] Emax, CD56hi NK Cells [1]: 25000 gMFI
IFNy [%+] EC50, CD8+ T Cells [2]: 0.095 nM
IFNy [%+] EC50, CD56hi NK Cells [2]: 0.02 nM
IFNy [%+] Emax, CD8+ T Cells [2]: 81.5 %+
IFNy [%+] Emax, CD56hi NK Cells [2]: 94 %+
pSTAT4 [%+] EC50, CD8+ T Cells [3]: 1.13 nM
pSTAT4 [%+] EC50, CD56hi NK Cells [3]: 1.85 nM
pSTAT4 [%+] Emax, CD8+ T Cells [3]: 80.2 %+
pSTAT4 [%+] Emax, CD56hi NK Cells [3]: 85.2 %+
IFNy [gMFI] EC50, CD8+ T Cells [4]: 0.41 nM
IFNy [gMFI] EC50, CD56hi NK Cells [4]: 2.56 nM
IFNy [gMFI] Emax, CD8+ T Cells [4]: 17100 gMFI
IFNy [gMFI] Emax, CD56hi NK Cells [4]: 187000 gMFI
B1: human IL12 mutein, hIL-12p40 E81A, F82A with hIL-12p35-8X His (ligand)
chain 1: IWELKKDVYVVELDWYPDAPGEMVVLTCDTPEEDGITWTLDQSSEVLGSGKTLTIQVKAAGDAGQYTCHKGGEVLSHSLLLLHKKEDGIWSTDILKDQKEPKNKTFLRCEAKNYSGRFTCWWLTTISTDLTFSVKSSRGSSDPQGVTCGAATLSAERVRGDNKEYEYSVECQEDSACPAAEESLPIEVMVDAVHKLKYENYTSSFFIRDIIKPDPPKNLQLKPLKNSRQVEVSWEYPDTWSTPHSYFSLTFCVQVQGKSKREKKDRVFTDKTSATVICRKNASISVRAQDRYYSSSWSEWASVPCS
chain 2: RNLPVATPDPGMFPCLHHSQNLLRAVSNMLQKARQTLEFYPCTSEEIDHEDITKDKTSTVEACLPLELTKNESCLNSRETSFITNGSCLASRKTSFMMALCLSSIYEDLKMYQVEFKTMNAKLLMDPKRQIFLDQNMLAVIDELMQALNFNSETVPQKSSLEEPDFYKTKIKLCILLHAFRIRAVTIDRVMSYLNASGSHHHHHHHH

IFNy [%+] EC50, CD8+ T Cells [2]: 0.178 nM
IFNy [%+] EC50, CD56hi NK Cells [2]: 0.036 nM
IFNy [%+] Emax, CD8+ T Cells [2]: 81.6 %+
IFNy [%+] Emax, CD56hi NK Cells [2]: 94 %+
IFNy [gMFI] EC50, CD8+ T Cells [4]: 0.35 nM
IFNy [gMFI] EC50, CD56hi NK Cells [4]: 0.75 nM
IFNy [gMFI] Emax, CD8+ T Cells [4]: 16300 gMFI
IFNy [gMFI] Emax, CD56hi NK Cells [4]: 156000 gMFI
B2: human IL12 mutein, hIL-12p40 E81R, F82A with hIL-12p35-8X His (ligand)
chain 1: B1 chain 1 with A59R
chain 2: B1 chain 2

IFNy [%+] EC50, CD8+ T Cells [2]: 0.305 nM
IFNy [%+] EC50, CD56hi NK Cells [2]: 0.046 nM
IFNy [%+] Emax, CD8+ T Cells [2]: 78.5 %+
IFNy [%+] Emax, CD56hi NK Cells [2]: 93.7 %+
IFNy [gMFI] EC50, CD8+ T Cells [4]: 0.51 nM
IFNy [gMFI] EC50, CD56hi NK Cells [4]: 0.62 nM
IFNy [gMFI] Emax, CD8+ T Cells [4]: 13200 gMFI
IFNy [gMFI] Emax, CD56hi NK Cells [4]: 123000 gMFI
B3: human IL12 mutein, hIL-12p40 E81K, F82A with hIL-12p35-8X His (ligand)
chain 1: B1 chain 1 with A59K
chain 2: B1 chain 2

IFNy [%+] EC50, CD8+ T Cells [2]: 0.226 nM
IFNy [%+] EC50, CD56hi NK Cells [2]: 0.026 nM
IFNy [%+] Emax, CD8+ T Cells [2]: 67.4 %+
IFNy [%+] Emax, CD56hi NK Cells [2]: 94.6 %+
IFNy [gMFI] EC50, CD8+ T Cells [4]: 0.38 nM
IFNy [gMFI] EC50, CD56hi NK Cells [4]: 0.5 nM
IFNy [gMFI] Emax, CD8+ T Cells [4]: 10600 gMFI
IFNy [gMFI] Emax, CD56hi NK Cells [4]: 194000 gMFI
B4: human IL12 mutein, hIL-12p40 E81V, F82A with hIL-12p35-8X His (ligand)
chain 1: B1 chain 1 with A59V
chain 2: B1 chain 2

IFNy [%+] EC50, CD8+ T Cells [2]: 0.185 nM
IFNy [%+] EC50, CD56hi NK Cells [2]: 0.003 nM
IFNy [%+] Emax, CD8+ T Cells [2]: 68 %+
IFNy [%+] Emax, CD56hi NK Cells [2]: 94.8 %+
IFNy [gMFI] EC50, CD8+ T Cells [4]: 0.39 nM
IFNy [gMFI] EC50, CD56hi NK Cells [4]: 0.47 nM
IFNy [gMFI] Emax, CD8+ T Cells [4]: 11500 gMFI
IFNy [gMFI] Emax, CD56hi NK Cells [4]: 223000 gMFI
B5: human IL12 mutein, hIL-12p40 E81L, F82A with hIL-12p35-8X His (ligand)
chain 1: B1 chain 1 with A59L
chain 2: B1 chain 2

pSTAT4 [gMFI] EC50, CD8+ T Cells [1]: 9.75 nM
pSTAT4 [gMFI] EC50, CD56hi NK Cells [1]: 156 nM
pSTAT4 [gMFI] Emax, CD8+ T Cells [1]: 86900 gMFI
pSTAT4 [gMFI] Emax, CD56hi NK Cells [1]: 35700 gMFI
IFNy [%+] EC50, CD8+ T Cells [2]: 0.533 nM
IFNy [%+] EC50, CD56hi NK Cells [2]: 0.079 nM
IFNy [%+] Emax, CD8+ T Cells [2]: 78.4 %+
IFNy [%+] Emax, CD56hi NK Cells [2]: 90.8 %+
pSTAT4 [%+] EC50, CD8+ T Cells [3]: 1.86 nM
pSTAT4 [%+] EC50, CD56hi NK Cells [3]: 4.03 nM
pSTAT4 [%+] Emax, CD8+ T Cells [3]: 77.7 %+
pSTAT4 [%+] Emax, CD56hi NK Cells [3]: 86.9 %+
IFNy [gMFI] EC50, CD8+ T Cells [4]: 1.4 nM
IFNy [gMFI] EC50, CD56hi NK Cells [4]: 2.8 nM
IFNy [gMFI] Emax, CD8+ T Cells [4]: 15000 gMFI
IFNy [gMFI] Emax, CD56hi NK Cells [4]: 140000 gMFI
B6: human IL12 mutein, hIL-12p40 E81A, F82A, K106A with hIL-12p35-8X His (ligand)
chain 1: B1 chain 1 with K84A
chain 2: B1 chain 2

IFNy [%+] EC50, CD8+ T Cells [2]: 0.37 nM
IFNy [%+] EC50, CD56hi NK Cells [2]: 0.061 nM
IFNy [%+] Emax, CD8+ T Cells [2]: 68.3 %+
IFNy [%+] Emax, CD56hi NK Cells [2]: 93.7 %+
IFNy [gMFI] EC50, CD8+ T Cells [4]: 0.55 nM
IFNy [gMFI] EC50, CD56hi NK Cells [4]: 1.48 nM
IFNy [gMFI] Emax, CD8+ T Cells [4]: 11700 gMFI
IFNy [gMFI] Emax, CD56hi NK Cells [4]: 313000 gMFI
B7: human IL12 mutein, hIL-12p40 E81I, F82A with hIL-12p35-8X His (ligand)
chain 1: B1 chain 1 with A59I
chain 2: B1 chain 2
